The target in this assay is decorin. The assay is described as follows: cell-based or functional assay.

On to “Full length human WISP-1-Fc fusion protein (baculovirus, Sf9 insect cells) (from UniProt O95388 23-367)”, for which the HAS2 expression in NRK cells plated on the coated surface (real time RT-PCR) is 3 fold.
